Each substance was assayed against FGFR1c (UniProt P11362) (assay: cell-based or functional assay).
FGFR1c, sequence (P11362 22-822): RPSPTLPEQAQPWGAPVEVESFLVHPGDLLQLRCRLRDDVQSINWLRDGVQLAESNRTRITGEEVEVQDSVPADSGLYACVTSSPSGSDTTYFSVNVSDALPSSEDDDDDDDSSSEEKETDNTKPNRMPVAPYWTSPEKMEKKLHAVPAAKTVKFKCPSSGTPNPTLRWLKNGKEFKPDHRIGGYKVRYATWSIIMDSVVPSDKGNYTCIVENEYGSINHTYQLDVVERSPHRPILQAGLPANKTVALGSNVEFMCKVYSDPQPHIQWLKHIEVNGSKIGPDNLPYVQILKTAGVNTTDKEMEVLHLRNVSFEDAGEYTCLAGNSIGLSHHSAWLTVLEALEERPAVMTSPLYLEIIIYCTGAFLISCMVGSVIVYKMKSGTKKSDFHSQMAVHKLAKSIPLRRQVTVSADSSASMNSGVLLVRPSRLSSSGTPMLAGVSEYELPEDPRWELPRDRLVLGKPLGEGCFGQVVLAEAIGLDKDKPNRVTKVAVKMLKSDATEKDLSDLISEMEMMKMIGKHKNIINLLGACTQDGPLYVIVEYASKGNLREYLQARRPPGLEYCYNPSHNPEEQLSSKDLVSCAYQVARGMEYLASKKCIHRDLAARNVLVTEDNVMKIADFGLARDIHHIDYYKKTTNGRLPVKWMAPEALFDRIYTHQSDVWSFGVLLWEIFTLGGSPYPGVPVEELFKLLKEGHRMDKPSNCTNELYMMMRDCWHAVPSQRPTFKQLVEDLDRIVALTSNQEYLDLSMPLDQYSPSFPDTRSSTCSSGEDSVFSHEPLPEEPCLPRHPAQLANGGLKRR

Substance	EC50(nM), dual-luciferase reporter gene assay, iLite FGF21 assay ready cells [nM]
Human mature FGF21 fusion protein with a N-terminal PAS200 modification (PAS200FGF21) (ligand)	1.98
Human mature FGF21 fusion protein with a N-terminal PAS15 modification (PAS15FGF21) (from UniProt Q9NSA1 29-209) (ligand)	0.22
Human mature FGF21 fusion protein with a N-terminal PAS100 modification (PAS100FGF21) (ligand)	0.62
Human mature FGF21 fusion protein with a N-terminal PAS50 modification (PAS50FGF21) (ligand)	0.4
Human mature FGF21 fusion protein with a N-terminal PAS30 modification (PAS30FGF21) (ligand)	0.3
